Experimental findings from patent publication US20240374719A1 (BIOINVENT INTERNATIONAL, published 2024) are described below.

Where a chain is given by its changes, count along the chain named.

Broadly, the EC50 (read off the curve) is the concentration needed to bring the measured effect to its halfway point. As a reminder, the Kd is the free concentration of one partner at which half of the binding sites on the other are occupied at equilibrium, for simple one-to-one binding. Read a low Kd as tighter binding.

For experiment [1], the target named is T1, mouse CTLA4-Fc (Sino Biological) (mouse, UniProt P09793 36-162, limits assumed).
T1 construct: Bought reagent; also called mouse CTLA-4 protein; recombinant CTLA-4; not shown: Fc part of the bought fusion protein; not described
The experiment in a line: ELISA, luminescence: mouse CTLA4-Fc coated, 5-B07 mIgG2a titrated in 3-fold steps [contd.) E]. (ELISA stands for enzyme-linked immunosorbent assay.)

Experiment [2] deals with T2, mouse CTLA-4 on transfected cells (mouse, UniProt P09793 36-223).
T2 construct: whole, on cells; also called mCTLA-4-transfected cells; mouse CTLA-4 transfected CHO cells
The experiment in a line: flow cytometry on mCTLA-4-transfected cells, antibody titrated [contd.) I]. For orientation: A flow cytometer gives signals particle by particle.

Experiment [3] concerns the target T1, mouse CTLA4-Fc (Sino Biological). The experiment in a line: ligand-blocking ELISA: mouse CTLA4-Fc coated, antibody titrated, His-tagged mouse CD86 added and detected with anti-His-HRP [contd.) J, panel mCD86].
For experiment [4] the target is unchanged. The experiment in a line: ligand-blocking ELISA: mouse CTLA4-Fc coated, antibody titrated, His-tagged mouse CD80 added and detected with anti-His-HRP [contd.) J, panel mCD80].
For experiment [5] the target is unchanged. The experiment in a line: ELISA, luminescence: antigen coated, antibody titrated [contd.) E].
Experiment [6] addresses T3, human CD28-Fc (R&D Systems) (human, UniProt P10747 19-152).
T3 construct: Bought reagent; also called human homologue CD28; not shown: Fc part of the bought fusion protein; not described
The description is as above.

Experiment [7] addresses T4, human CTLA4-Fc (R&D Systems) (human, UniProt P16410 36-161).
T4 construct: extracellular domain; Bought reagent; also called rhCTLA-4-Fc; hCTLA-4; not shown: Fc part of the bought fusion protein; not described
The experiment is described as above.

Experiment [8] has as its target T4, human CTLA4-Fc (R&D Systems). Nature of the experiment: ligand-blocking ELISA: human CTLA4-Fc coated, antibody titrated, His-tagged rhCD86 added and detected with anti-His-HRP [contd.) G, panel hCD86].
Experiment [9] has the same target. The experiment in a line: by the legend: binding to immobilized recombinant hCTLA-4 protein as in FIG. 1E; 4-E03 purified from BT-001-infected MIA PaCa-2 cells; the y axis reads 'IgG binding (geomean; x10^3)' [contd.) G].
Another experiment concerns the target T5, cmCTLA-4 (Macaca fascicularis, UniProt G7PL88).
T5 construct: recombinant protein coated for ELISA; also called cynomolgus CTLA-4; cynomolgus monkey CTLA-4
Nature of the experiment: ELISA, luminescence: antigen coated, antibody titrated [contd.) E].

Experiment [10] concerns the target T6, human CTLA-4 protein (Sino Biological), soluble (human, UniProt P16410 36-162, limits assumed).
T6 construct: Analyte of the Biacore experiment; also called soluble human CTLA-4
The experiment in a line: SPR (Biacore 3000); mAb captured by immobilised anti-human Fc, soluble human CTLA-4 injected (1.6 to 50 nM).

Experiment [11] deals with T4, human CTLA4-Fc (R&D Systems). The experiment in a line: ligand-blocking ELISA: human CTLA4-Fc coated, antibody titrated, His-tagged rhCD80 added and detected with anti-His-HRP [contd.) G, panel hCD80].
Experiment [12] has the same target. The experiment in a line: by the legend: binding to immobilized recombinant hCTLA-4 protein as in FIG. 1E; the y axis reads 'IgG binding (geomean; x10^3)' [contd.) G].
In experiment [13] the target is T6, human CTLA-4 protein (Sino Biological), …. Nature of the experiment: SPR (Biacore): antibody at 5 nM captured on immobilized anti-human Fc, human CTLA-4 protein injected at rising concentrations [contd.) C, upper panel]. Background: Surface plasmon resonance follows binding to a sensor surface in real time, without labels.

T4 sequence (P16410 36-161): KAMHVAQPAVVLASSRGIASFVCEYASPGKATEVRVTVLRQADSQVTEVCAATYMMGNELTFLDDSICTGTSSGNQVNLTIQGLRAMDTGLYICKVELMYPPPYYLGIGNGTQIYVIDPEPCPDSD
T5 sequence (G7PL88 entry or part of it): as the sequence (P16410 36-161) above, with S14N, I18T, L106M counted along it
T6 sequence (P16410 36-162 limits assumed): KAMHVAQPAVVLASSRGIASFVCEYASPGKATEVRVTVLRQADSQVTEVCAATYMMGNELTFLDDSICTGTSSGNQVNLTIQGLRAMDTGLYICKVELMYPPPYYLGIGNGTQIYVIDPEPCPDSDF

B1: 5-B07 mIgG2a (anti-mouse CTLA-4, mouse IgG2a) (antibody, V domains shown)
VH: EVQLLESGGGLVQPGGSLRLSCAASGFTFSSYSMNWVRQAPGKGLEWVSAISGSGGSTYYADSVKGRFTISRDNSKNTLYLQMNSLRAEDTAVYYCARDRVEMNQWLADWGQGTLVTVSS
VL: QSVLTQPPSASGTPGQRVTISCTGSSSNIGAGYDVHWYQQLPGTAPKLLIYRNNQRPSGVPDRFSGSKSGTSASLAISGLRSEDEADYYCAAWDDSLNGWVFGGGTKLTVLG
notes: The protein in the assay lacks the signal peptide; also called anti-mCTLA-4 (5-B07); mouse surrogate antibody 5-B07 mIgG2a
B1: the concentration for a half-maximal effect (EC50 (read off the curve)) in [1] was about 0.7 nM; in experiment [2], about 0.8 µg/mL. Moreover, the results for the “IC50 (read off the curve)” value in experiment [3] and in [4] were about 0.6 nM and about 2 nM, respectively.

B2: 4-E03 hIgG1 (anti-human CTLA-4, human IgG1) (antibody, V domains shown)
VH: EVQLLESGGGLVQPGGSLRLSCAASGFTFSDYYMSWVRQAPGKGLEWVSGISWSSRDKGYADSVKGRFTISRDNSKNTLYLQMNSLRAEDTAVYYCTTDLARYWGQGTLVTVSS
VL: QSVLTQPPSASGTPGQRVTISCTGSSSNIGAGYDVHWYQQLPGTAPKLLIYGNDNRPSGVPDRFSGSKSGTSASLAISGLRSEDEADYYCAVWDDSLNGVVFGGGTKLTVLG
notes: Human IgG1 lambda, recombinant (HEK 293 EBNA); also called 4-E03 IgG1; anti-hCTLA-4 (4-E03)
As for B2, the results for the binding result in experiment [5] and in [6] were “binds” and “no binding (tested: about 20 nM)”, respectively. The “EC50 (read off the curve)” value in experiment [7] was about 0.3 nM; in experiment [9], about 4 nM; in the experiment with cmCTLA-4, about 0.3 nM; in experiment [12], about 6 nM. Besides, the figures for the “IC50 (read off the curve)” value in experiment [8] and in experiment [11] were about 0.4 nM and about 1 nM, respectively. The figures for the Kd in [10] and in experiment [13] were 0.6 nM and 0.4 nM, respectively.

B3: 2-C06 (anti-human CTLA-4 antibody clone) (antibody, human IgG1, V domains shown)
VH: EVQLLESGGGLVQPGGSLRLSCAASGFTFSSYAMSWVRQAPGKGLEWVSGISGSGGYIHYADSVKGRFTISRDNSKNTLYLQMNSLRAEDTAVYYCATYSSGLHDAFDIWGQGTLVTVSS
VL: B2 VL with G52D, D54N, N55K, V92A, V100W
notes: Tested as human IgG1 (lambda light chain)
Consider B3, for which the “IC50 (read off the curve)” value is about 0.4 nM in experiment [8] and about 1 nM in experiment [11].

B4: ipilimumab (antibody, V domains shown)
VH: QVQLVESGGGVVQPGRSLRLSCAASGFTFSSYTMHWVRQAPGKGLEWVTFISYDGNNKYYADSVKGRFTISRDNSKNTLYLQMNSLRAEDTAIYYCARTGWLGPFDYWGQGTLVTVSS
VL: not shown
Turning to B4, in the experiment with cmCTLA-4, the “EC50 (read off the curve)” value was about 0.2 nM.
